From PMC8035321 come the findings set out here.

The assay has as its target mouse MOCCI^FLAG (Modulator of cytochrome C oxidase during Inflammation, FLAG-tagged) (mouse). Nature of the assay: co-IP; anti-FLAG M2 beads on total mouse heart mitochondria (AAV-MOCCI; AAV-GFP as negative control) solubilised with 1% digitonin in IP buffer (50 mM HEPES-KOH, 150 mM NaCl, 1 mM EDTA, pH 7.4), 4 °C; elution with 3X FLAG peptide; immunoblotting. In general terms: A western blot detects proteins with antibodies after separation by electrophoresis.

Substance “MTCO-1, the catalytic subunit of CIV (cytochrome C oxidase) (from UniProt P00397 1-514) (natural protein)” yielded an enrichment in the anti-FLAG immunoprecipitate of 231%.
